Experimental findings from patent publication CN115894704A (UNIV SICHUAN, dated 2023) are described below.

T1: EpCAM-camFc(人EpCAM与羊驼Fc重组蛋白) (human, UniProt P16422 24-265)
T1 construct: Recombinant fusion of human EpCAM and alpaca Fc; not shown: alpaca Fc
T1 sequence (looked up): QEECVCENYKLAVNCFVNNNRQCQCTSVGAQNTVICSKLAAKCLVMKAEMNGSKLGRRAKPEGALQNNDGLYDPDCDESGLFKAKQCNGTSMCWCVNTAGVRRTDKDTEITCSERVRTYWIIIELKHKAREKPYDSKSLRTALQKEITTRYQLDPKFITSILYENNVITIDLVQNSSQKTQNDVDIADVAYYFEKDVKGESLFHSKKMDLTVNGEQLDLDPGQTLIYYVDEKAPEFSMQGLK

B1: Anti-EpCAM-VHH SEQ ID NO 8 (phage-displayed) (VHH)
VHH: EVQLVESGGDSVQAGGSLRLSCAASGYSPGSYCMGWFRQAPGKERERVAIIESRGTVTYVDSVKGRFTISKDNAKNTLYLQMNSLKPEDTAMYYCAASRPWSGVRCLHDKYDYWGQGTQVTVSS
notes: fusion to the phage coat protein is not described
B2: Anti-EpCAM-VHH SEQ ID NO 9 (phage-displayed) (VHH)
VHH: HVQLVESGGGSVQSGGSLRLSCAVSGYAYSSLAWFRQAPGKEREGVAALLTAIGGPTRTTYADSVKGRLAISQDHAKNTLYLQMSSLKPEDTAMYYCAAGRPAGTPRWLLLAPRDYNYWGQGTQVTVSS
notes: as for B1
B3: Anti-EpCAM-VHH SEQ ID NO 3 (phage-displayed) (VHH)
VHH: QVQLVESGGGSVQAGGSLRLSCVVSAYSAYTYKTMCMGWFRQAPGKEREGVAAIYRGGLNTYYADSVKGRFIISRDNAESTMYLQMNSLKPEDTAMYYCAADWLRGDDCNIGANFDYWGQGTQVTVSS
notes: as for B1
B4: Anti-EpCAM-VHH SEQ ID NO 4 (phage-displayed) (VHH)
VHH: QVQLVESGGGSVQAGGSLRLSCVATGFTISRKCMGWFREAPGKKREVIATINTGSSSPYYADGVKGRFTISQDNAKNTVYLQMNSLKPEDTAMYYCAATKGVVVGTGYCGGPYVERPNSAYWGQGTQVTVSS
notes: as for B1
B5: Anti-EpCAM-VHH SEQ ID NO 7 (phage-displayed) (VHH)
VHH: HVQLVESGGGSVQAGGSLKLSCAASGSIFSGSIFSRCGMRWYRQAPGKERELVSSTSKDGFTSYTDSVKGRFTISQDNANNTLYLQMSSLKTEDTAVYSCAAICAVGGYSLSTYTYWGQGTQVTVSS
notes: as for B1
B6: Anti-EpCAM-VHH SEQ ID NO 6 (phage-displayed) (VHH)
VHH: DVQLVESGGGSAQAGGSLRLSCAASGPTSSLRTMGWFRQASGKERERVAVIWDGRTTDYDDSVQDRFTISQDNAKSTVYLQMNTLKPEDTAMYYCAASPRIVPFASTYFQHWGQGTQVTVSS
notes: as for B1
B7: Anti-EpCAM-VHH SEQ ID NO 2 (phage-displayed) (VHH)
VHH: HVQLVESGGGSVQSGGSLRLSCAASGYAVKNCMGWFRQAPGKEREGVAVINRNGITTYADSVKGRFTISQDKDKNTLDLQMNSLKPEDTAMYYCAATPTLLTIPARFLCDVRNPSGFTDWGQGTLVTVSS
notes: as for B1
B8: Anti-EpCAM-VHH SEQ ID NO 1 (phage-displayed) (VHH)
VHH: DVQLVESGGGSVQSGGSLRLSCAASGYTYRRYYMGWFRQAPGEQREGVAVINNDGRTNYADSVKGRFRISRDNAENTLHLEMNSLKPEDTAMYYCAATGNILPPMTAVPPLGRQWYPYWGRGTLVTVSS
notes: as for B1
B9: Anti-EpCAM-VHH SEQ ID NO 5 (phage-displayed) (VHH)
VHH: DVQLVESGGGSVQAGRSLRLSCELSDYTWSTVCMGWFRQAPGKEREGVAVIYTRSGGTTYADSAKGRFTISRDNAKDTLYLQMDSLKPEDTAMYYCAAGPLYDGRCTYRSPAFHYWGQGTQVTVSS
notes: as for B1

The target in this experiment is T1, EpCAM-camFc(人EpCAM与羊驼Fc重组蛋白). The experiment in a line: phage ELISA, EpCAM-camFc coated, anti-M13 HRP.
As for B1, the binding result is on record as “binds”.

For the molecule B2, the binding result is “binds”.

With B3, the binding result is “binds”.

With B4, the binding result is listed as “binds”.

As to B5, the binding result is recorded as “binds”.

Take B6: the binding result is given as “binds”.

Take B7: the binding result was “binds”.

In the case of B8, the binding result is recorded as “binds”.

In the case of B9, the binding result is on record as “binds”.
